Like-named read-outs stand apart in the source and are kept apart here.
Assays:
Experiment in all cases: competition
[1] = biological target: T1, TP0262 (TpCRP, CRP homolog) (Treponema pallidum subsp. pallidum, UniProt O83286 1-224)
T1 sequence: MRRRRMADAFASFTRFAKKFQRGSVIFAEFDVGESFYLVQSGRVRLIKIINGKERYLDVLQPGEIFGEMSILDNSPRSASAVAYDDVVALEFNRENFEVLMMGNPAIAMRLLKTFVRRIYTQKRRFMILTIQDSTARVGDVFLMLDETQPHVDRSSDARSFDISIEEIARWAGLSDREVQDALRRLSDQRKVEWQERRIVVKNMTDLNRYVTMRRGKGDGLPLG

[2] = biological target: T1, TP0262 (TpCRP, CRP homolog); remark: listed apart in the source
[3] = biological target: T1, TP0262 (TpCRP, CRP homolog); remark: listed apart in the source
[4] = biological target: E. coli CRP (Escherichia coli K12 MG1655, UniProt P0ACJ8 1-210)
E. coli CRP, sequence (P0ACJ8 whole entry): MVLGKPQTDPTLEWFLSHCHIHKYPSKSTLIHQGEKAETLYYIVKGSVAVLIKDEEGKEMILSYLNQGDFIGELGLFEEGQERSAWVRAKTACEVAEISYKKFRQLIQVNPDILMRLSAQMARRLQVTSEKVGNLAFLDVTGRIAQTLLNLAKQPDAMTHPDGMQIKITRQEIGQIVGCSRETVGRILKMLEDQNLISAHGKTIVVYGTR

B1: tprJ competitor oligo (dsDNA)
DNA 1: GTTGTCAGTGCACGAGGAGGAG
DNA 2: CTCCTCCTCGTGCACTGACAAC
[1]
  binding result: binds

B2: tprG competitor oligo (dsDNA)
DNA 1: GTCAGTGCTAGCAGTCACATAC
DNA 2: GTATGTGACTGCTAGCACTGAC
[2]
  binding result: binds

B3: tprE competitor oligo (dsDNA)
DNA 1: TGCGTGTGTGTGTGGGCTCGTGCTG
DNA 2: CAGCACGAGCCCACACACACACGCA
[3]
  binding result: binds

B4: lac competitor oligo (E. coli CRP site) (dsDNA)
DNA 1: AAATGTGATCTAGATCACATTT
DNA 2: AAATGTGATCTAGATCACATTT
[4]
  binding result: binds

Source: article PMC2698047
